These results are taken from PMC10341432, “Cross-Linking Mass Spectrometry on P-Glycoprotein” (International Journal of Molecular Sciences, 2023).

For assay [1], the target named is T1, P-glycoprotein (human), as expressed on NIH 3T3 MDR1 cells (human, UniProt P08183, N-glycans on ECL1).
T1 construct: P-glycoprotein (MDR1, ABCB1), human; integral membrane protein on the cell surface; Cell line a gift from M. Gottesman; also called Pgp; multi-drug resistance protein 1; source: NIH 3T3 MDR1 mouse fibroblasts, human Mdr1 gene-transduced, stably expressing; on living cells and in membrane preparation (Mem-PER Plus kit)
T1 sequence (P08183 whole entry): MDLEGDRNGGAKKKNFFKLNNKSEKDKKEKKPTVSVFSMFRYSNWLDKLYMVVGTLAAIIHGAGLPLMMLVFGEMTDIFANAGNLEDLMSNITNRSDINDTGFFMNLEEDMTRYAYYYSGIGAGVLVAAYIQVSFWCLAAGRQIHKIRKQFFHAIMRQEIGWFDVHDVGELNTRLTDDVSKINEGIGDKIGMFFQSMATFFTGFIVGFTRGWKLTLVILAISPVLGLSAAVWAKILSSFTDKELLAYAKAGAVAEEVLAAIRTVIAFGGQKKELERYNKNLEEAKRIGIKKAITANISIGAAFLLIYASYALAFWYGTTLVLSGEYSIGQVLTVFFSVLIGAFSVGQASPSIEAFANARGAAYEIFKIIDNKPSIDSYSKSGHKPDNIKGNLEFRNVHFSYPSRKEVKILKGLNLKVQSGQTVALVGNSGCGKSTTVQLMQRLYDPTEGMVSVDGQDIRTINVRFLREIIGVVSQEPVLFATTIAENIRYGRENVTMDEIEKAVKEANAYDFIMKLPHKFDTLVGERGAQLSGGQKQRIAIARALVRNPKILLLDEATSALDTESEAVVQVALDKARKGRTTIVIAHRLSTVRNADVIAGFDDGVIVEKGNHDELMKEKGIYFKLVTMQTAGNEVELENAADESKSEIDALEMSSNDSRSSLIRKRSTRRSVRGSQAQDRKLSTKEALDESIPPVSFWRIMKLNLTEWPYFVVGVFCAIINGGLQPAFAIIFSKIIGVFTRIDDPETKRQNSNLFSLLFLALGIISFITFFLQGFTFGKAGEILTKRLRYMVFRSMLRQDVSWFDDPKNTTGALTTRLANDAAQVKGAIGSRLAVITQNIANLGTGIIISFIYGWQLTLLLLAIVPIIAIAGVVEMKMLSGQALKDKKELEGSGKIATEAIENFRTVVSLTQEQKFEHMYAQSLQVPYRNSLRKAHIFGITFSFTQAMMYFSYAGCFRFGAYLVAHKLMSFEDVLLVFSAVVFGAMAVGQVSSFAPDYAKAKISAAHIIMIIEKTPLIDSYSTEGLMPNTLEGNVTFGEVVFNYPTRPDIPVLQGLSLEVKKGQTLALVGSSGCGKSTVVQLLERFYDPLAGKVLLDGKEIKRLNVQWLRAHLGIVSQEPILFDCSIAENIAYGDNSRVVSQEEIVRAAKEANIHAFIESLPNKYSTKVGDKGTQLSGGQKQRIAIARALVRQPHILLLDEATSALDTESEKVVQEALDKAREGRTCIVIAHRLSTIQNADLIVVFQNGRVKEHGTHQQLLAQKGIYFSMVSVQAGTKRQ
Description: flow cytometry on cells; living NIH 3T3 MDR1 cells treated with 0, 50, 100 or 200 U/mL PNGase F; 10 µg/mL 15D3 or UIC2 for 30 min at 37 °C in glucose-PBS; Alexa-488 anti-mouse goat secondary antibody. Conditions: one partner purified.

Assay [2] addresses T2, P-glycoprotein (human) on NIH 3T3 MDR1 cells after PNGase F treatment (Homo sapiens, UniProt P08183, all N-linked oligosaccharides removed from ECL1 by PNGase F).
T2 construct: P-glycoprotein (MDR1, ABCB1), human; N-glycans of ECL1 removed on living cells; also called Pgp; deglycosylated Pgp; source: NIH 3T3 MDR1 mouse fibroblasts, human Mdr1 gene-transduced; living cells treated with PNGase F (50, 100 or 200 U/mL)
The description is as above. Conditions: one partner purified.

T2 sequence (P08183 whole entry): as above

B1: 15D3 mouse monoclonal anti-Pgp antibody (antibody, V domains shown)
VH: EVKVVESGGVLVRPGGSLKLSCAASGFTFSRYTMSWVRQTPEKRLEWVATISSGGGNTYYPDSVKGRFTVSRDNAMSSLYLQMSSLRSEDTALYYCARYGAGDAWFAYWGQGTLVTVSA
VL: ELAMTQTPLSLPVSLGDQASISCRSSQSIVHSTGNTYLEWYLQKPGQSPKLLIYKVSNRFSGVPDRFSGSGSGTDFTLKISRLEAEDLGVYYCFQGSHFPRTFGGGTRLEIK
notes: mouse IgG1 constant part; IgG1; also called 15D3 mAb; source: hybridoma (ATCC HB-11342) supernatant or mouse ascites, purified (Protein G)
Consider B1, for which the binding result in assay [1] and in assay [2] was “binds” in each case.
